Patent US20160039904A1, “STABILIZED SINGLE HUMAN CD4 DOMAINS AND FUSION PROTEINS” (priority 2013, published 2016)

How the values were obtained:
[1] = target: gp140Con-s (HIV-1); test: ELISA (OD 450 nm) on Cons gp140 (gp140Con-s), sCD4Fc titrated [A]
[2] = target: HIV-1 Env of isolate GXE (HIV-1); test: cell-based or functional assay
[3] = target: HIV-1 Env of isolate Z2Z6 (HIV-1); test: cell-based or functional assay
[4] = target: HIV-1 Env of isolate 89.6 (HIV-1); test: cell-based or functional assay
[5] = target: HIV-1 Env of isolate CM243 (HIV-1); test: cell-based or functional assay
[6] = target: HIV-1 Env of isolate JRFL (HIV-1); test: cell-based or functional assay
[7] = target: HIV-1 Env of isolate GXC (HIV-1); test: cell-based or functional assay
[8] = target: HIV-1 Env of isolate JRCSF (HIV-1) (UniProt P20871); test: cell-based or functional assay
[9] = target: HIV-1 Env of isolate Bal (HIV-1); test: cell-based or functional assay
[10] = target: HIV-1 Env of isolate 92UG037.8 (HIV-1); test: cell-based or functional assay
[11] = target: HIV-1 Env of isolate NL4-3 (HIV-1); test: cell-based or functional assay
[12] = target: HIV-1 Env of isolate IIIB (HIV-1); test: cell-based or functional assay
[13] = target: HIV-1 Env of isolate R2 (HIV-1); test: cell-based or functional assay
[14] = target: HIV-1 Env of isolate KNH1088.EC5 (HIV-1); test: cell-based or functional assay
[15] = target: HIV-1 Env of isolate BZ167.ec9 (HIV-1); test: cell-based or functional assay
[16] = target: HIV-1 Env of isolate 55815.EC3 (HIV-1); test: cell-based or functional assay
[17] = target: HIV-1 Env of isolate KNH1144.EC1 (HIV-1); test: cell-based or functional assay
[18] = target: HIV-1 Env of isolate A07412VRC12A (HIV-1); test: cell-based or functional assay
[19] = target: HIV-1 Env of isolate 57128.VRC18 (HIV-1); test: cell-based or functional assay
[20] = target: HIV-1 Env of isolate Bal.EC1 TC (HIV-1); test: cell-based or functional assay
[21] = target: HIV-1 Env of isolate CM240.EC1 (HIV-1); test: cell-based or functional assay
[22] = target: HIV-1 Env of isolate N1 1046.e3 PV (HIV-1); test: cell-based or functional assay
[23] = target: HIV-1 Env of isolate GS-015.EC12 (HIV-1); test: cell-based or functional assay
[24] = target: HIV-1 Env of isolate PBL286.VRC36aPV (HIV-1); test: cell-based or functional assay
[25] = target: HIV-1 Env of isolate AD8 (HIV-1); test: cell-based or functional assay
[26] = target: HIV-1 Env of isolate CAM0015BBY.EC3 (HIV-1); test: cell-based or functional assay

Sequence of HIV-1 Env of isolate JRCSF (HIV-1) (P20871 32-848 limits assumed): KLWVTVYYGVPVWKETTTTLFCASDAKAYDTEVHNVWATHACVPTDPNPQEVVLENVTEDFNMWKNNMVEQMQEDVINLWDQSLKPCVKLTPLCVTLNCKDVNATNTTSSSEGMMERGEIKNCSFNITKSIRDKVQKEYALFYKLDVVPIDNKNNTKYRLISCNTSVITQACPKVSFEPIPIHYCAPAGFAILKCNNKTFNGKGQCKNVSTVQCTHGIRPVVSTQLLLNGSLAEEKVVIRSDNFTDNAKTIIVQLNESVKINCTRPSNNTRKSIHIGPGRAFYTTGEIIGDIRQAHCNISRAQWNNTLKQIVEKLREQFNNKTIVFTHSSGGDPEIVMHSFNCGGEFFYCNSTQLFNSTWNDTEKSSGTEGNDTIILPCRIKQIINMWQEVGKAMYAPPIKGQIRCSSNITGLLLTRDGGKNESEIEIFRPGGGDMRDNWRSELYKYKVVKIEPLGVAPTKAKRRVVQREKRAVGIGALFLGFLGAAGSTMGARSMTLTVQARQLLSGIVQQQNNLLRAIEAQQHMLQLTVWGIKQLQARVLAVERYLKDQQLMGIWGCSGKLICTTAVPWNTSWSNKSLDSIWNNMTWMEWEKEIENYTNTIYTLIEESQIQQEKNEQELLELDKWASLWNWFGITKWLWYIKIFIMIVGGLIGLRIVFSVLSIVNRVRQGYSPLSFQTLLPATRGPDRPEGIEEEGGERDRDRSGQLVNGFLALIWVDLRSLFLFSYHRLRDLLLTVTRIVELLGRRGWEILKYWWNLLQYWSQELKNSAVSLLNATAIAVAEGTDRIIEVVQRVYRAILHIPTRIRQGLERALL

D1D2mFc (from UniProt P01730 26-203) (Fc fusion)
EC50 (read off the curve) [1]: 0.3 nM

2G12 (antibody)
IC50, neutralization of pseudotyped HIV-1; '-' = No significant neutralization at the highest antibody concentration (67 nM) tested [2]: > 67 nM | IC90, neutralization of pseudotyped HIV-1; '-' = No significant neutralization at the highest antibody concentration (67 nM) tested [2]: > 67 nM | IC50, neutralization of pseudotyped HIV-1 [3]: 0.7 nM | IC50, neutralization of pseudotyped HIV-1 [4]: 1.3 nM | IC90, neutralization of pseudotyped HIV-1 [4]: 43 nM | IC50, neutralization of pseudotyped HIV-1; '-' = No significant neutralization at the highest antibody concentration (67 nM) tested [5]: > 67 nM | IC90, neutralization of pseudotyped HIV-1; '-' = No significant neutralization at the highest antibody concentration (67 nM) tested [5]: > 67 nM | IC50, neutralization of pseudotyped HIV-1 [6]: 3 nM | IC90, inhibition of Env-mediated cell-cell fusion [6]: 67 nM | IC50, neutralization of pseudotyped HIV-1; '-' = No significant neutralization at the highest antibody concentration (67 nM) tested [7]: > 67 nM | IC90, neutralization of pseudotyped HIV-1; '-' = No significant neutralization at the highest antibody concentration (67 nM) tested [7]: > 67 nM | IC50, neutralization of pseudotyped HIV-1 [8]: 0.58 nM | IC90, neutralization of pseudotyped HIV-1 [8]: 9.3 nM | IC50, inhibition of Env-mediated cell-cell fusion [9]: 38 nM | IC90, inhibition of Env-mediated cell-cell fusion [9]: > 67 nM | IC90, neutralization of pseudotyped HIV-1 [9]: 41 nM | IC50, neutralization of pseudotyped HIV-1 [10]: 0.53 nM | IC50, neutralization of pseudotyped HIV-1 [11]: 1.3 nM | IC50, neutralization of pseudotyped HIV-1 [12]: 1.5 nM | IC90, neutralization of pseudotyped HIV-1 [12]: 9.3 nM | IC50, neutralization of pseudotyped HIV-1 [13]: 0.68 nM | IC90, neutralization of pseudotyped HIV-1 [13]: 4.6 nM

VRC01 (antibody)
IC50, neutralization of pseudotyped HIV-1 [2]: 2 nM | IC90, neutralization of pseudotyped HIV-1 [2]: 26 nM | IC50, neutralization of pseudotyped HIV-1 [3]: 0.11 nM | IC90, neutralization of pseudotyped HIV-1 [3]: 0.85 nM | IC50, neutralization of pseudotyped HIV-1 [4]: 0.37 nM | IC50, neutralization in TZM-bl cell-based assay [14]: 3 nM | IC50, neutralization of pseudotyped HIV-1 [5]: 0.53 nM | IC90, neutralization of pseudotyped HIV-1 [5]: 9.5 nM | IC90, neutralization in TZM-bl cell-based assay [15]: 31 nM | IC50, neutralization in TZM-bl cell-based assay [16]: 0.33 nM | IC90, neutralization in TZM-bl cell-based assay [16]: 2.6 nM | IC90, neutralization in TZM-bl cell-based assay [17]: 9.5 nM | IC50, neutralization of pseudotyped HIV-1 [6]: 0.31 nM | IC90, neutralization of pseudotyped HIV-1 [6]: 0.82 nM | IC90, neutralization of pseudotyped HIV-1 [7]: 6.6 nM | IC50, neutralization in TZM-bl cell-based assay [18]: 1.3 nM | IC90, neutralization in TZM-bl cell-based assay [18]: 6 nM | IC50, neutralization in TZM-bl cell-based assay [19]: > 167 nM | IC90, neutralization in TZM-bl cell-based assay [19]: > 167 nM | IC50, neutralization in TZM-bl cell-based assay [20]: 0.39 nM | IC90, neutralization in TZM-bl cell-based assay [20]: 5.2 nM | IC50, neutralization in TZM-bl cell-based assay [21]: 0.66 nM | IC50, neutralization of pseudotyped HIV-1 [8]: 0.28 nM | IC90, neutralization of pseudotyped HIV-1 [8]: 5.6 nM | IC50, neutralization in TZM-bl cell-based assay [22]: 4.2 nM | IC50, neutralization in TZM-bl cell-based assay [23]: > 167 nM | IC90, neutralization in TZM-bl cell-based assay [23]: > 167 nM | IC50, inhibition of Env-mediated cell-cell fusion [9]: 2.6 nM | IC50, neutralization of pseudotyped HIV-1 [9]: 0.11 nM | IC90, inhibition of Env-mediated cell-cell fusion [9]: 24 nM | IC90, neutralization of pseudotyped HIV-1 [9]: 0.56 nM | IC90, neutralization in TZM-bl cell-based assay [24]: 10 nM | IC50, neutralization of pseudotyped HIV-1 [25]: 0.36 nM | IC90, neutralization of pseudotyped HIV-1 [25]: 4.3 nM | IC50, neutralization of pseudotyped HIV-1 [10]: 0.33 nM | IC90, neutralization of pseudotyped HIV-1 [10]: 3.8 nM | IC50, neutralization of pseudotyped HIV-1 [11]: 0.25 nM | IC90, neutralization of pseudotyped HIV-1 [11]: 2.6 nM | IC50, neutralization of pseudotyped HIV-1 [12]: 0.26 nM | IC90, neutralization of pseudotyped HIV-1 [12]: 0.83 nM | IC50, neutralization of pseudotyped HIV-1 [13]: 0.34 nM | IC90, neutralization of pseudotyped HIV-1 [13]: 4.4 nM | IC50, neutralization in TZM-bl cell-based assay [26]: 21 nM | IC90, neutralization in TZM-bl cell-based assay [26]: > 167 nM
